Reference: PMC314469, “Protein Interaction Networks by Proteome Peptide Scanning” (PLoS Biology, 2004)

T1: Abp1 SH3 (ABP1_YEAST), P15891
T1 chain: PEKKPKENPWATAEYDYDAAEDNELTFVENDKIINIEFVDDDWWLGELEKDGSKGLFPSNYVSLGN


Target: T1, Abp1 SH3 (ABP1_YEAST), P15891
Test: SPOT array

Row | Binder | normalised SPOT signal, Boehringer light units (BLU); mean over the file's lines of this peptide
1 | SPNEIFSPSYSKP [YGL092W 308-320] | 66.1
2 | SPSPSPSPLNPYRP [YNL298W 398-411] | 21.8
3 | SQATKSSPFRSRP [YKR089C 884-896] | 1250
4 | SQEVQRVPWDNKP [YGL114W 7-19] | 86.2
5 | SQRSSDLPEWRRP [YJR035W 262-274] | 377
6 | SQSANLAPSNLRP [YER005W 601-613] | 95.4
7 | SREDRKNRAPPQRP [YER131W 88-101] | 109
8 | SRGRYGLPLSSRP [YDR419W 378-390] | 327
9 | SRKNSMSPTRKRP [YNL152W 392-404] | 209
10 | SRNFTLNYAFPIKP [YBL058W 387-400] | 80.1
11 | SRQAIPPPVPNRP [YLR144C 4-16] | 2950
12 | SSAIEDSPPDFKP [YBL054W 173-185] | 85.8
13 | SSALMQGQKTPQKP [YLR079W 24-37] | 335
14 | SSGPSASHRGPRRP [YMR280C 1387-1400] | 390
15 | SSIFEDHHITPSKP [YDR451C 284-297] | 0
16 | SSILHDLPRKVRP [YJL076W 1069-1081] | 786
17 | SSPTKVASSSPLKP [YAL019W 19-32] | 104
18 | SSSPKKGPLSIKP [YNL230C 233-245] | 347
19 | SSSRSVVPILPKP [YER040W 495-507] | 329
20 | SSSSSILPSTPTRP [YPL202C 310-323] | 70.9
21 | SSSSSPLENTPPRP [YML027W 280-293] | 159

Row | Binder | normalised SPOT signal, Boehringer light units (BLU); mean over the file's lines of this peptide
22 | SSTIKRYPSRYKP [YFR019W 125-137] | 238
23 | SSTKVPEPPSWKP [YIL156W 492-504] | 34.3
24 | SSTLKSNSSLPPKP [YGR178C 412-425] | 69
25 | SSVSAHQPTQEKP [YGL008C 14-26] | 161
26 | SSYAHKRSELPTRP [YNL139C 1440-1453] | 201
27 | STFLYRFPINGRP [YER019W 144-156] | 89.3
28 | STFSDHEPQHTKP [YBL054W 203-215] | 96.8
29 | STGGVKKPHRYKP [YBR010W 32-44] | 130
30 | STIPDNHPVLNKP [YAL043C 192-204] | 117
31 | STKKPRPPVKSKP [YOR367W 152-164] | 67200
32 | STKPEKPPVVKKP [YNL106C 1109-1121] | 13300
33 | STMVTYLPPSSKP [YKL020C 555-567] | 136
34 | STRAKGIAFHPSRP [YDL145C 11-24] | 119
35 | STRLTLTKWDPSKP [YKL027W 380-393] | 209
36 | STSFSPSPLIRRP [YKL108W 250-262] | 550
37 | STSSENRLRTPLKP [YGL021W 216-229] | 76.6
38 | SVASLKRVIVPDKP [YNL020C 51-64] | 388
39 | SVLAPYLPFLMKP [YHR099W 870-882] | 8.6
40 | SVQNAKFPRASKP [YPL160W 891-903] | 240
41 | SVQQSQILIQPERP [YCR033W 957-970] | 73
42 | SVRVQGEPLDPKRP [YGL027C 137-150] | 80
